Experimental data reported in patent US20050255547A1.

Each substance was assayed against oligomerized FasL (assay: cell-based or functional assay).

inhibition of FasL-induced apoptosis of A20 cells (IC50) [µg/mL]	Substance
> 1	Fas-Fc (Fc fusion)
0.08	FasR:mACRP30 (receptor)
0.035	Fas-COMP (receptor)
